The labels stand for the following.
B1: F1*; the commonest letter at each place (parent)
chain: GAGACCGCAACTGAAAAGTTGTTATCACTTGTCGTAAGACACTTTGGATGGGTTGAAGTTCTGCACGTAGAAGCAAAAGGC

From the supplement of paper PMC6755084 come the findings set out here.

In this data set the parent is B1. Briefly: fraction ligated after 30 min (ligated reads / total reads); higher = more ligase activity. Conditions: with F1*sub RNA substrate (template-directed ligation), 42 °C. The gist of the method: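 Templates from an oligo pool were PCR-amplified, transcribed with T7 and gel-purified to give the ribozyme variants. Ligated and unligated products were separated on gel, reverse transcribed using barcoded primers, and read on a MiSeq. A quality filter of ≥20 was applied to core bases. Fraction ligated was taken as ligated reads as a share of all reads per variant.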
Take GAGACCGCAACTGAAAAGTTGTTATCACTCGGGGTAACCCGCTTTGGATGGGTTGAAGTTCTGCACGTAGAAGCAAAAGGC [T30C T32G C33G G38C A39C A41G]: the fraction ligated is 0.831.
On to GAGACCGCAACTGAAAAGTTGTTATCACTGGTCGTAAGACACTTTGGATGGGTTGAAGTTCTGCACGTAGAAGCAAAAGGC [T30G], for which the fraction ligated worked out at 0.843.
As for GAGACCGCAACTGAAAAGTTGTTATCACTCGTCGTAAGACACTTGGGATGGGTTGAAGTTCTGCACGTAGAAGCAAAAGGC [T30C T45G], the fraction ligated amounted to 0.174.
As for GAGACCGCAACTGAAAAGTTGTTATCACTCGTCGTAAGACACTTAGGATGGGTTGAAGTTCTGCACGTAGAAGCAAAAGGC [T30C T45A], the fraction ligated was 0.668.
The value for GAGACCGCAACTGAAAAGTTGTTATCACTCGTCGTAAGACACTTCGGATGGGTTGAAGTTCTGCACGTAGAAGCAAAAGGC [T30C T45C] was 0.475.
In the case of GAGACCGCAACTGAAAAGTTGTTATCACTCGTCGTAAGACACTTTTGATGGGTTGAAGTTCTGCACGTAGAAGCAAAAGGC [T30C G46T], the fraction ligated was determined as 0.78.
The value for GAGACCGCAACTGAAAAGTTGTTATCACTCGTCGTAAGACACTTTAGATGGGTTGAAGTTCTGCACGTAGAAGCAAAAGGC [T30C G46A] was 0.807.
As for GAGACCGCAACTGAAAAGTTGTTATCACTCGTCGTAAGACACTTTCGATGGGTTGAAGTTCTGCACGTAGAAGCAAAAGGC [T30C G46C], the fraction ligated was determined as 0.759.
Turning to GAGACCGCAACTGAAAAGTTGTTATCACTCGGCGTAAGCCGCTTTGGATGGGTTGAAGTTCTGCACGTAGAAGCAAAAGGC [T30C T32G A39C A41G], the fraction ligated came out at 0.852.
As for GAGACCGCAACTGAAAAGTTGTTATCACTGGTCGTAAGCCACTTTGGATGGGTTGAAGTTCTGCACGTAGAAGCAAAAGGC [T30G A39C], the fraction ligated was found to be 0.786.
Consider GAGACCGCAACTGAAAAGTTGTTATCACTGGTCGTAAGGCACTTTGGATGGGTTGAAGTTCTGCACGTAGAAGCAAAAGGC [T30G A39G], for which the fraction ligated turned out to be 0.841.
GAGACCGCAACTGAAAAGTTGTTATCACTGGTCGTAAGTCACTTTGGATGGGTTGAAGTTCTGCACGTAGAAGCAAAAGGC [T30G A39T]: the fraction ligated was 0.779.
The value for GAGACCGCAACTGAAAAGTTGTTATCACTCGCGGTAACGCGCTTTGGATGGGTTGAAGTTCTGCACGTAGAAGCAAAAGGC [T30C T32C C33G G38C A39G A41G] was 0.816.
Take GAGACCGCAACTGAAAAGTTGTTATCACTGGTCGTAAGACCCTTTGGATGGGTTGAAGTTCTGCACGTAGAAGCAAAAGGC [T30G A41C]: the fraction ligated was determined as 0.834.
GAGACCGCAACTGAAAAGTTGTTATCACTGGTCGTAAGACTCTTTGGATGGGTTGAAGTTCTGCACGTAGAAGCAAAAGGC [T30G A41T]: the fraction ligated was determined as 0.82.
The value for GAGACCGCAACTGAAAAGTTGTTATCACTGGTCGTAAGACGCTTTGGATGGGTTGAAGTTCTGCACGTAGAAGCAAAAGGC [T30G A41G] was 0.84; that for GAGACCGCAACTGAAAAGTTGTTATCACTCGTCTTAAGACACTTTGGATGGGTTGAAGTTCTGCACGTAGAAGCAAAAGGC [T30C G34T] was 0.787; that for GAGACCGCAACTGAAAAGTTGTTATCACTCGTCCTAAGACACTTTGGATGGGTTGAAGTTCTGCACGTAGAAGCAAAAGGC [T30C G34C] was 0.746.
Consider GAGACCGCAACTGAAAAGTTGTTATCACTCGTCATAAGACACTTTGGATGGGTTGAAGTTCTGCACGTAGAAGCAAAAGGC [T30C G34A], for which the fraction ligated came out at 0.792.
The result for GAGACCGCAACTGAAAAGTTGTTATCACTCGACGTAAGACACTTTGGATGGGTTGAAGTTCTGCACGTAGAAGCAAAAGGC [T30C T32A] reads 0.817; that for GAGACCGCAACTGAAAAGTTGTTATCACTCGGCGTAAGACACTTTGGATGGGTTGAAGTTCTGCACGTAGAAGCAAAAGGC [T30C T32G], 0.809.
The result for GAGACCGCAACTGAAAAGTTGTTATCACTCGCCGTAAGACACTTTGGATGGGTTGAAGTTCTGCACGTAGAAGCAAAAGGC [T30C T32C] reads 0.726; that for GAGACCGCAACTGAAAAGTTGTTATCACTCGTCGTAAGACATTTTGGATGGGTTGAAGTTCTGCACGTAGAAGCAAAAGGC [T30C C42T], 0.794; that for GAGACCGCAACTGAAAAGTTGTTATCACTCGTCGTAAGACAGTTTGGATGGGTTGAAGTTCTGCACGTAGAAGCAAAAGGC [T30C C42G], 0.817.
The value for GAGACCGCAACTGAAAAGTTGTTATCACTCGTCGTAAGACAATTTGGATGGGTTGAAGTTCTGCACGTAGAAGCAAAAGGC [T30C C42A] was 0.817; that for GAGACCGCAACTGAAAAGTTGTTATCACTGGTCGTCAGACACTTTGGATGGGTTGAAGTTCTGCACGTAGAAGCAAAAGGC [T30G A36C] was 0.833.
For GAGACCGCAACTGAAAAGTTGTTATCACTGGTCGTGAGACACTTTGGATGGGTTGAAGTTCTGCACGTAGAAGCAAAAGGC [T30G A36G], the fraction ligated came out at 0.872.
The result for GAGACCGCAACTGAAAAGTTGTTATCACTGGTCGTTAGACACTTTGGATGGGTTGAAGTTCTGCACGTAGAAGCAAAAGGC [T30G A36T] reads 0.841.
As to GAGACCGCAACTGAAAAGTTGTTATCACTCCGGGTAACCGGCTTTGGATGGGTTGAAGTTCTGCACGTAGAAGCAAAAGGC [T30C G31C T32G C33G G38C A39C C40G A41G], the fraction ligated amounted to 0.839.
With GAGACCGCAACTGAAAAGTTGTTATCACTCCGCGTAAGCGGCTTTGGATGGGTTGAAGTTCTGCACGTAGAAGCAAAAGGC [T30C G31C T32G A39C C40G A41G], the fraction ligated was 0.862.
With GAGACCGCAACTGAAAAGTTGTTATCACTCTTCGTAAGACACTTTGGATGGGTTGAAGTTCTGCACGTAGAAGCAAAAGGC [T30C G31T], the fraction ligated amounted to 0.823.
The value for GAGACCGCAACTGAAAAGTTGTTATCACTCCTCGTAAGACACTTTGGATGGGTTGAAGTTCTGCACGTAGAAGCAAAAGGC [T30C G31C] was 0.789; that for GAGACCGCAACTGAAAAGTTGTTATCACTCATCGTAAGACACTTTGGATGGGTTGAAGTTCTGCACGTAGAAGCAAAAGGC [T30C G31A] was 0.779; that for GAGACCGCAACTGAAAAGTTGTTATCACTCGTCGTAAGAAACTTTGGATGGGTTGAAGTTCTGCACGTAGAAGCAAAAGGC [T30C C40A] was 0.828.
